This is an account of results in patent US20150140018A1 (MEDICAL AND BIOLOGICAL LABORATORIES, published 2015).

The assay deals with T1, CXADR protein on human prostate cancer cells (LNCaP-CR, DU-145) (human, UniProt P78310 20-365).
T1 construct: whole, on cells; Endogenous CXADR; also called coxsackievirus and adenovirus receptor; CAR
T1 sequence (looked up): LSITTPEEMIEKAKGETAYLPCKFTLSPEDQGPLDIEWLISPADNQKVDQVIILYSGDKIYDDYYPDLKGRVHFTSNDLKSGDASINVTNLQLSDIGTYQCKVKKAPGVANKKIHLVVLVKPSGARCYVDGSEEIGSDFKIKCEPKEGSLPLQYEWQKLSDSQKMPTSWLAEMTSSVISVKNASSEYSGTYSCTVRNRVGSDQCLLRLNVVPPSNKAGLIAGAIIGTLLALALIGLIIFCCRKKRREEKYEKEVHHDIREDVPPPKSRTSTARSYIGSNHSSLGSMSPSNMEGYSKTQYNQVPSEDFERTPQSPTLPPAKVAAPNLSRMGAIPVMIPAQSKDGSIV
Put plainly: flow cytometry, purified antibody at 5 ug/mL on LNCaP-CR and DU-145 cells that express CXADR. Background: Flow cytometry measures light scatter and fluorescence of single cells or particles in a stream.

B1: anti-CXADR antibody 7F8A (antibody, V domains shown)
VH: DVQLQESGPGLVKPSQTVSLTCTVTGYSITNGNHWWNWIRQVSGSKLEWIGYINSSGSTDSNPSLKSRISITRDTSKNQLFLQLNSVTIEDIATYYCARDDYYFDYWGQGTTLTVSS
VL: DIQMTQSPASLSASVGETVTITCRASENIDSYLAWYQQKQGKSPQLLVYAATLLADGVPSRFSGSGSGTQYSLKINSLQSEDVARYYCQHYYSTPLTFGAGTKLELKR
notes: also called 7F8A clone
Regarding B1, the binding result is “binds”.
